Laboratory results as given in the supplement of paper PMC12042874.
± gives the uncertainty stated by the source.

Assay: amyloid nucleation score (Sup35N fusion, yeast selection) (log enrichment); library NNK2; higher = more nucleation; inactive = no reads after selection
Procedure, shortened: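 Nucleation score: DiMSum log enrichment of output over input reads, centred on the mode score of non-aggregating sequences. Only sequences with at least 100 input reads were kept. Reads came from Illumina sequencing of plasmid inserts before and after 7 days of growth at 30°C without adenine and uracil, in psi-negative yeast expressing Sup35N fused to peptides of 20 random codons after 24 hours of induction with 100 μM copper sulfate.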

| Substance | amyloid nucleation score |
| --- | --- |
| NSSTTHAGLVYYYSGKGPRV | inactive |
| NNRQK | 0.63 ± 0.43 |
| SLDECHLSRRTNS | 0.411 ± 0.34 |
| VNNYWNDSCARSLNMGRTGR | 0.791 ± 0.27 |
| KPNFIRLYRIKFNKLGLGIT | -0.855 ± 1 |
| FNIPGHSH | -1.51 ± 0.78 |
| SRHWLNDVIFLSHSTSGQHW | 1.49 ± 0.18 |
| NGARKCFIDAHWESAVANPE | 3.2 ± 0.099 |
| IPVDT | -0.668 ± 1.1 |
| TYPAHFVWLCNCCVDKYSLS | 2.79 ± 0.069 |
| FHVCWERSMLIRV | -0.559 ± 0.76 |
| DSDKLHDRDVVWNWGRGLYR | 0.399 ± 0.23 |
| YGRRGELN | -0.422 ± 1.1 |
| NTGSLRYWHCVSSGNSTTGR | inactive |
| TDLNHACCSNPLSF | -0.468 ± 0.61 |
| SDVRLVLAASEIRYGAGCRW | 0.299 ± 0.65 |
| VNRAR | -0.545 ± 0.63 |
| GFVYQVIITIRHVCSLKRNR | 0.76 ± 0.16 |
| TKSGCRGIGHSSVVSS | 1.19 ± 0.37 |
| SCRRMLFGMWILGFLNR | inactive |
| CFIPLGVNFGDRTWLTVRIR | 0.357 ± 0.41 |
| KLWSSARFIWLSNHHLHGDC | 1.01 ± 0.57 |
| VSNFSRYHLSCYSMVRLLLD | -0.532 ± 0.36 |
| CCFCFDNLIIPRDCYANSDN | 6.734 ± 0.03 |
| RANFSGTKLLVNTECLWLSV | 2.35 ± 0.17 |

| Substance | amyloid nucleation score |
| --- | --- |
| SSFGGGCSVCRMWGGFLLDG | 4.4 ± 0.059 |
| INTCIWASLYLSMAHEYRI | -0.793 ± 0.62 |
| YFSSTYLRQGIFWCFRMSRL | -0.43 ± 1.1 |
| CEEHDFMTSFICIAWAWKWL | -0.66 ± 0.48 |
| TNEAIEMS | inactive |
| KYFRICRVYLNTLLPLVTLV | inactive |
| SDGSREFSCKLGGAGLGDGW | 0.334 ± 0.5 |
| ADLCHTGRGSMRPCETED | inactive |
| FAKLKIIGSARKYK | -1.19 ± 0.61 |
| KRFAIPEHTLTTYRQLA | 0.082 ± 0.42 |
| GDTYMGVYANLVMLALYGPG | 5.2 ± 0.088 |
| EASKGHISTVLWLGGVIS | -0.352 ± 0.65 |
| VLFAWSASDVIVV | 0.639 ± 0.33 |
| TSGDCYMNGILNNGWGQ | -1.42 ± 0.78 |
| CFAIFWLFECTTSSMKMTRV | 0.053 ± 1.1 |
| CDRLSVNHFKEAGVQGSLSE | 0.851 ± 0.21 |
| KYVGSWITTDVSFECTVI | -0.46 ± 1 |
| GESTWATVLACPSERRSCSR | 0.559 ± 0.33 |
| HADNARRYQTTLMVGLRVVG | 0.409 ± 0.49 |
| FYHYDLLYRSGVLWRNHHGP | 2.77 ± 0.1 |
| IQARSYFVPTFSFLCTHSPT | 0.839 ± 0.48 |
| FVPSSLEGPLAGCYSAFIFE | inactive |
| SGLTSIWQPTRTRMMSPSRR | 0.08 ± 0.79 |
| MYLRYSFLIISCELGDLNSL | inactive |
| SLACGNEKRFVMILSHI | 0.641 ± 0.74 |

| Substance | amyloid nucleation score |
| --- | --- |
| YINHSHVRGIVRIYNVQV | inactive |
| DSSMFYVIGLL | -0.626 ± 0.79 |
| CYRHVLFKATLKWCNFAVFI | 7.383 ± 0.046 |
| AVASVETDGSKIYMMDVLNY | -1.16 ± 1.1 |
| VNGTTGRSCNKNLDVFNSSI | -0.35 ± 1.1 |
| QSNRKYGETHWFSTCNMHVL | 0.533 ± 0.45 |
| LMSQGCRGRLLL | -0.356 ± 0.64 |
| VFIGQQDHINP | 0.363 ± 0.65 |
| FRSNSDLISFERASFR | -1.62 ± 0.55 |
| YRACCVYNLGEVEWGVWVVC | -0.31 ± 0.21 |
| HFNVPCNCSNCSYGTILSIT | -0.305 ± 0.8 |
| GNVGL | 1.86 ± 0.078 |
| SEQWSQIYGAFSV | -1.32 ± 0.63 |
| NGNRSHLELRCGWMSWCDRA | -0.318 ± 0.55 |
| IKYRFGGLGPRPPNGRRFE | 0.635 ± 0.65 |
| ACNVILCVTNPTHNVIV | 9.254 ± 0.036 |
| TPFGTVECTQLLLSTSRWLF | -0.26 ± 1 |
| RQGPALFSKINIATLKWLSM | 0.511 ± 0.62 |
| FFQFTTDSHCND | 0.654 ± 0.8 |
| RWLPSVID | -0.302 ± 0.61 |
| VYKQVRNKVCSYLSLTERRW | 0.654 ± 0.57 |
| LRIICMSTMWRKCFRGIATA | -0.195 ± 0.39 |
| AHYIASVDWIFKM | -1.32 ± 0.41 |
| FRYLDRSNYRKSCGYIITLT | -0.74 ± 1.1 |
| LFLSLKYPLSYYASTVDNLA | 0.6 ± 0.74 |

| Substance | amyloid nucleation score |
| --- | --- |
| DGASIFSSAFIVGSGTLKQM | -0.911 ± 0.78 |
| GCDLKLGVKCLKNERRVPEF | 0.382 ± 0.8 |
| LITIAIAARCSRMIGLQLFL | -0.495 ± 0.32 |
| VLRANGCWLFMLHNLIYLWL | 0.172 ± 0.65 |
| VAGIVYLGARW | 5.43 ± 0.086 |
| HLVSSRGRMWPPFAPVGKQD | 0.492 ± 0.64 |
| SKPCWLFRNK | -1.22 ± 1.1 |
| SLSKKMFRCRS | 3.4 ± 0.12 |
| ERYKCVYDNDRLMSLTSPDL | -0.429 ± 0.29 |
| VGLCVLFRWLHKTWMMEWLG | 0.426 ± 0.35 |
| CNIVPYRPINGWIPDVLLED | -0.275 ± 0.79 |
| NFLADCLDGSANAIWVHVAS | 0.57 ± 0.23 |
| FRMFNVGFPDRPIMFRVDRL | 0.41 ± 0.74 |
| IIQISSYSALWFRW | 0.724 ± 0.14 |
| VTRDARRDSQGDKVV | 1.02 ± 0.17 |
| FVLTCRSSLYAVRDRLK | 1.35 ± 0.43 |
| QLSFPSVTDLNRLAIIMLRV | 1.13 ± 0.4 |
| CRHMSDHWKSSR | -0.562 ± 0.54 |
| SWMIYLCRVGTITRMQDWLW | -0.445 ± 0.35 |
| MINFDYYRYHCWCSNQHYTR | 1.19 ± 0.47 |
| RSDMCSAMIFWSELVKWQDG | 3.84 ± 0.091 |
| NAYLVSRVIKLIVLSKWYRY | 0.689 ± 0.57 |
| WCHVSLMYRGYLKSGARDGN | 0.199 ± 0.43 |
| PGTFFSLSKWWFIDGVTEPG | 0.178 ± 0.77 |
| GVPRMTSVDSYRLLLFSASR | 0.19 ± 0.25 |

| Substance | amyloid nucleation score |
| --- | --- |
| CGMFWLSRYEFYRISSCRRL | 1.3 ± 0.14 |
| GSPSRRGTVYRVWRVRWCNG | 0.307 ± 0.64 |
| VILRVIGIIMRDNKFSHDVR | inactive |
| FLTYRLSNYYTPGKFCVYFK | inactive |
| SCRTQVMVLSLLFKRKVGFN | -1.28 ± 0.36 |
| MRSSFGK | -0.086 ± 0.5 |
| VWRIRTAMGTG | 0.766 ± 0.19 |
| NLGSHTVEFSVMS | 0.152 ± 0.77 |
| RCHRNFVSWVEDLGRRSIGV | 4.53 ± 0.051 |
| LFSHFYSYDY | -0.317 ± 1.1 |
| AYLQGSLMEKICKISCPVDN | -0.387 ± 1.1 |
| SQIWFTVTYGQYCYYIVSL | -0.33 ± 0.33 |
| CGFFVNEFTDLAWSYSLAVN | -0.117 ± 0.74 |
| TFNKLYYSSVACLCRLGHSR | 9.32 ± 0.055 |
| SIRSRLEFSFFL | 3.45 ± 0.047 |
| NAFSKSIFKNMTQQKDQLSE | inactive |
| YVSEQTHPMVIMYHFLRQHQ | -0.181 ± 0.5 |
| QGRRISKLC | -1.39 ± 1 |
| RDVFVLCWDFFMVERCRDRC | 5.85 ± 0.072 |
| PCLRKNRYRLWLYTMVIQTQ | 0.806 ± 0.32 |
| VNSLFDWNRAKFLIR | -1.39 ± 0.79 |
| EVTILVGKGERLKRTYCSR | 0.329 ± 0.2 |
| KSRNYIFSGYELVASPSSVK | inactive |
| CIYKS | -1.36 ± 0.75 |
| DMYLRIS | inactive |

| Substance | amyloid nucleation score |
| --- | --- |
| PKSYWLSISRLKPVSQYYLR | 1.21 ± 0.24 |
| QRYWSAYDTRNLIGE | 1.41 ± 0.47 |
| THIFVWNHFNLLRYTTKFLP | -0.304 ± 0.4 |
| TVYAIP | -0.322 ± 0.65 |
| NEVVFRVYK | 3.22 ± 0.068 |
| VMNMRLLRANLPWTLAWRVQ | 0.122 ± 0.35 |
| LVNKG | 3.15 ± 0.064 |
| IGSEDPRHFRSVCWSYNDTL | -0.789 ± 0.61 |
| PSLTVPGVSRYCFS | -1.29 ± 0.75 |
| AWRVRTLQGFYGSDAWQSHD | -0.237 ± 0.79 |
| KDAPKFIYFSQLTTKCITRY | 4.14 ± 0.044 |
| WCLGSMVTHYYLATNSSGYC | 3.64 ± 0.11 |
| KILNDWADMKSRLMGRLLGE | 0.65 ± 0.42 |
| AYASPCMQDLGRCLGRPRML | 1.21 ± 0.31 |
| SSPGSCIMSENWVNSSWRFT | inactive |
| FASVLLCSIRRALGRVVRPL | 0.144 ± 0.55 |
| KKLKRRRVFVCEFTKEGIRG | -0.067 ± 1.1 |
| RNSVFPILLAYDASDFVARK | -0.494 ± 0.41 |
| YGALYTVRMEN | -0.482 ± 0.49 |
| SPGIITCGYKLLDG | 1.69 ± 0.27 |
| STCFLTFVY | inactive |
| IRALDGHGFSSPWARFGPAG | 0.755 ± 0.4 |
| EFNLLRYSVETNIISEKKLV | 0.129 ± 0.54 |
| QLYLWHCGFLTTDISGSNSS | -0.713 ± 0.63 |
| FVVQPLSSFLWVSIA | 1.05 ± 0.3 |

| Substance | amyloid nucleation score |
| --- | --- |
| CHNYELCCRLFNSFSTNQIA | -0.468 ± 0.29 |
| DYITCQFYLTVFELSCCMSC | 7.932 ± 0.047 |
| WLTKLDRTSLEGSEYFKKML | 0.307 ± 0.34 |
| VISKYDWFK | -0.255 ± 1.1 |
| LYWAFTTISLYLTSTFVSLM | -1.66 ± 1.1 |
| GRWKDRFCTVGMLYSRG | -0.316 ± 0.45 |
| RRYAKNMFRDLGWPVPTRSD | 3.09 ± 0.11 |
| SYSQGD | 0.674 ± 0.53 |
| RYQGLLTPVTAGRLFICIP | -0.363 ± 1.1 |
| FCTNSYSFMDGTSCWAELRA | 0.594 ± 0.47 |
| NIIFLGVGSVFKNWRTTILS | 4.02 ± 0.049 |
| GVDKWLDHVCFVASYLSVKV | 1.22 ± 0.51 |
| AFHWMF | 0.544 ± 0.28 |
| TIEGALSSS | 0.931 ± 0.22 |
| GRSGRNNVKAW | inactive |
| LQCAFFDSSNMWI | -0.604 ± 0.76 |
| NLRWPIFNSWSSG | -0.553 ± 0.27 |
| NFYFLIRLKAFSCLRIENWF | 2.28 ± 0.061 |
| AYGVSPI | -0.093 ± 0.35 |
| QSVKLFNSPTSAELILGTKE | -0.982 ± 0.78 |
